“Also recorded” adds a separate entry of the source. One block for each compound: values may come before it. Where a SMILES comes first, the peptide text is derived from it. The star is where a group is joined. Cbz = O=C(OCc1ccccc1)*
Legend:
GFP-TDP43CTF [1] = experiment: Bafilomycin A1 or MG132 treatment of cells co-expressing reporter and Construct 3, immunoblot; format: cell-based, human; conditions: immunoblot (FIG. 10)
Text: Cells were transfected either with the reporter construct GFP-TDP43FL (lane 2) or GFP-TDP43CTF (lanes 3-8), and co-transfected with nucleic acids encoding Construct 3 (lanes 4-8).
We next investigated the mechanism of the fusion protein in reducing aggregation. HEK293 cells were transfected with the GFP-TDP43FL or GFP-TDP43CTF reporter construct, either alone or with Construct 3 (JB1-scFv (3B12A)), as well as with BFA (Bafilomycin A1, an inhibitor of the late phase of autophagy) or MG132 (proteasome inhibitor).

GFP-TDP43CTF [2] = target: T1, GFP-TDP43CTF (Homo sapiens, UniProt Q13148); experiment: Fluorescence microscopy of GFP-TDP43CTF aggregation (GFP foci) in transfected HEK293 cells; format: cell-based; conditions: for reduction of TDP-43 aggregation: GFP-TDP43CTF reporter, vs reporter alone (FIG. 8/9, Table 12); for aggregation of GFP-TDP43CTF reporter in cells (in words): HEK293 cells, vs reporter alone
T1 construct: expressed in transfected cells; host or cells: HEK293
Procedure: (§1) Expression vector plasmids encoding various protein constructs were transfected into HEK293 cells with Lipofectamine 3000 transfection reagent (Thermo Fisher Scientific). Cell lysates were analyzed for expressed proteins using immunoblot assays. Samples of culture media were centrifuged to remove debris prior to analysis. Cells were lysed in a lysis buffer (10 mM Tris-HCl, pH 8.0, 150 mM NaCl, 10 mM EDTA, 2% SDS) containing 2 mM PMSF and protease cocktail (Complete Protease Inhibitor Cocktail; Sigma). After brief sonication, the samples were analyzed for expressed proteins using immunoblot assays. For immunoblot analysis, samples were boiled in an SDS-sample buffer and run on polyacrylamide electrophoresis. Thereafter, the separated protein bands were transferred to a PVDF membrane.
(§2) In some instances, aggregation of TDP-43 (full-length of C-terminal fragment) GFP reporter constructs (described below) were detected in vivo using fluorescence microscopy. Cultured cells expressing the reporter constructs as well as the fusion protein comprising the J domain and TDP-43-binding domain were washed with PBS and fixed with 4% paraformaldehyde in PBS for 5 minutes. After three 5-min washes with PBS, nuclear DNA was stained with DAPI. Percentage of cells containing TDP-43 (GFP foci) in transfected cells was counted.
We first investigated whether the fusion molecule of the present invention targeting TDP-43 ameliorates its aggregation in cultured cells. To this end, we generated GFP-based reporter constructs GFP-TDP43 and GFP-TDP43, wherein GFP was fused at its C-terminus to either the full-length human TDP-43 protein or the C-terminal fragment TDP-43 which is known to form cytoplasmic aggregation and cytotoxicity (See Table 8 below). HEK293 cells were cultured and transfected with the plasmids encoding the full-length TDP43 or the C-terminal fragment of TDP43, containing the C-terminal 207 amino acids TDP-43 (amino acids 208-414 of human TDP-43) as a GFP fusion [GFP-TDP43FL (SEQ ID NO: 101) or GFP-TDP43CTF (SEQ ID NO: 102)].

GFP-TDP43CTF [3] = target: T1, GFP-TDP43CTF; experiment: Immunoblot (anti-GFP) of reporter level in cell extracts; format: cell-based; conditions: vs negative control
Procedure: as §1
(§3) Expressed proteins were detected using a chemiluminescent signal. Briefly, blots were reacted with a primary antibody capable of binding the particular epitope (e.g., GFP). After rinsing away the unreacted primary antibody, a secondary, enzyme-linked antibody (e.g., HRP-linked anti-lgG antibody) was allowed to react with the primary antibody molecules bound to the blots. Following rinsing, a chemiluminescent reagent was added, and the resultant chemiluminescent signals in the blots were captured on X-ray film.

GFP-TDP43CTF [4] = target: T1, GFP-TDP43CTF; experiment: Fractionation assay: soluble and insoluble fractions, immunoblot; format: cell-based; conditions: GFP-TDP43CTF reporter, HEK293 cells
Procedure: Transfected HEK293 cells are homogenized in RIPA buffer (50 mM Tris, pH7.5, 150 mM NaCl, 0.1% NP-40, 0.5% sodium deoxycholate, 0.1% SDS) supplemented with protease inhibitor cocktail, 2 mM PMSF, 10 mM NaF, and 2 mM Na3VO4. After brief sonication, protein concentration is measured by BCA assay kit (Pierce). The equal protein amount is spun down by centrifugation at 16,000×g for 30 minutes at 4° C. to fractionate into soluble fraction (supernatant) and insoluble fraction (pellet). The insoluble fraction is further solubilized in SDS lysis buffer (10 mM Tris, pH8.0, 150 mM NaCl, 2% SDS). Both soluble and insoluble fractions were applied to SDS-PAGE under reducing condition, followed by immunoblotting assay with anti-GFP antibody.

GFP-TDP43FL [5] = target: T2, GFP-TDP43FL (Homo sapiens, UniProt Q13148); experiment: Immunoblot (anti-GFP) of reporter level in cell extracts; format: cell-based; conditions: cell extracts (FIG. 5)
T2 construct: expressed in transfected cells; host or cells: HEK293
Procedure: as §1, §3

human TDP-43ΔNLS = target: T3, human TDP-43ΔNLS (Homo sapiens, UniProt Q13148, K82A/K84A/R83A); experiment: Efficacy in rNLS8 (NEFH-tTA x hTDP-43ΔNLS) mouse model of ALS, ICV AAV rh10; format: in vivo; conditions: rNLS8 mice (Dox −)
T3 construct: expressed in transfected cells; host or cells: transgene in NEFH-tTA x hTDP-43ΔNLS bigenic mice (rNLS mice), in vivo
Procedure: Vectors prepared above were tested on TDP-43-asociated pathologies of a novel AAV NEFH-tTA×hTDP-43ΔNLS bigenic mice (rNLS mice). This model has a doxycycline (DOX)-repressible construct expressing pathogenic TDP-43 (human TDP-43ΔNLS). Upon removal of DOX, TDP-43ΔNLS expression causes a rapid and progressive deterioration of the animals, causing severe weight loss and, generally within 6-8 weeks, death. We tested the efficacy of Construct 3 (JB1-scFv (3B12A), SEQ ID NO: 80) in slowing the progression of TDP-43ΔNLS-mediated pathology. AAV rh10 containing control or Construct 3 were administered ICV unilaterally at P1/P2 at a volume of 2 ul (maximum 4 ul) in different groups as shown below in Table 17. Except for the control group 1, DOX removal occurred at week 5. Control mice in group
Body weight was measured twice weekly after weaning. After completion of testing, samples were collected from all surviving mice. Whole brains were collected and split into 2 hemispheres. One hemisphere were weighed and frozen on dry ice. The second hemisphere were post fixed in 4% PFA for histology assessments.

[6] = format: in vivo, mouse; conditions: C57BL/6J mice, AAV rh10 vector encoding Construct 3 vs control, three weeks after ICV or IT injection; data not shown
GFP-TDP43FL [7] = target: T2, GFP-TDP43FL; experiment: Fluorescence microscopy of GFP-TDP43FL aggregation (GFP foci) in transfected HEK293 cells; format: cell-based; conditions: vs negative controls and construct 2 (FIG. 7)
Procedure: as §1
as §2, with “counted. […]” for “counted.”

Compound: CC(C)C[C@@H](C=O)NC(=O)[C@H](CC(C)C)NC(=O)[C@H](CC(C)C)NC(=O)OCc1ccccc1 [MG132] (Cbz-Leu-Leu-Leu-aldehyde)
- level of GFP-TDP43CTF reporter in cells co-expressing Construct 3 after MG132 treatment (GFP-TDP43CTF [1]; MG132 0.1 μM or 1.0 μM): little to no effect

Compound: Construct 4: Same as construct 3, with a P33Q mutation in the conserved HPD motif
- aggregation of GFP-TDP43CTF reporter in cells (in words) (GFP-TDP43CTF [2]): did not reduce aggregation
- levels of the full-length reporter construct (GFP-TDP43FL), anti-GFP immunoblot (in words) (GFP-TDP43FL [5]): No differences

Compound: Construct 3: DnaJB1 J domain fused to scFv(3B12A)
- survival at week 10 (human TDP-43ΔNLS; AAV rh10 6 × 10^10 vg ICV at P1, DOX removal at week 5 (FIG. 16C)): 100%
- body weight compared with Group 2 (AAV control, DOX off) (human TDP-43ΔNLS; males, AAV rh10 6 × 10^10 vg ICV at P1, DOX removal at week 5 (FIG. 16B)): statistically significant weight increase
- body weight [6]: No difference in body weight
- aggregation level in cells expressing GFP-TDP43FL reporter (in words) (GFP-TDP43FL [7]): modest reduction
- reduction of TDP-43 aggregation (GFP-TDP43CTF [2]): > 90%
- aggregation of GFP-TDP43CTF reporter in cells (in words) (GFP-TDP43CTF [2]): substantially reduced aggregation
- aggregation of GFP-TDP43CTF reporter in cells (in words) (GFP-TDP43CTF [2]; listed as construct 3): dramatically reduced
- amount of GFP-TDP43CTF reporter protein, anti-GFP immunoblot (in words) (GFP-TDP43CTF [3]): lower levels
- amount of GFP-TDP43CTF reporter protein, anti-GFP immunoblot (in words) (GFP-TDP43CTF [3]; listed as construct 3): marked reduction
- levels of the full-length reporter construct (GFP-TDP43FL), anti-GFP immunoblot (in words) (GFP-TDP43FL [5]): No differences

Compound: CO/C1=C\C(C)=C\[C@@H](C)[C@@H](O)[C@@H](C)C/C(C)=C/C=C/[C@H](OC)[C@@H]([C@@H](C)[C@@H](O)[C@H](C)[C@@]2(O)C[C@@H](O)[C@H](C)[C@@H](C(C)C)O2)OC1=O [BFA, Bafilomycin A1]
- level of GFP-TDP43CTF reporter in cells co-expressing Construct 3 after BFA treatment (GFP-TDP43CTF [1]; BFA 0.01 μM (10 nM) or 0.1 μM (100 nM)): higher levels; also recorded: reappearance of pathogenic TDP43 in a dose dependent manner

The next lines start with the values.

- reduction of TDP-43 aggregation (GFP-TDP43CTF [2]): ~71%
- amount of GFP-TDP43CTF reporter protein, anti-GFP immunoblot (in words) (GFP-TDP43CTF [3]): lower levels
Compound: Construct 14: J domain from DnaJB1 fused to two tandem copies of QBP1

- ability to reduce aggregation of GFP-TDP43CTF (in words, with Table 15) (GFP-TDP43CTF [4]): potent reduction
Compound: Construct 20: Construct 3 containing the dimerization domain from human DnaJA1

- reduction of TDP-43 aggregation (GFP-TDP43CTF [2]): ~43%
- amount of GFP-TDP43CTF reporter protein, anti-GFP immunoblot (in words) (GFP-TDP43CTF [3]): lower levels
Compound: Construct 9: Full-length J protein control [reference compound]

- aggregation level in cells expressing GFP-TDP43FL reporter (in words) (GFP-TDP43FL [7]): modest reduction
- aggregation of GFP-TDP43CTF reporter in cells (in words) (GFP-TDP43CTF [2]): dramatically reduced
Compound: Construct 5: Reversed arrangement of J domain and TDP-43 from Construct 3
